{"source": "patent US6682736", "binders": {"B1": {"name": "4.10.2 (antibody, human IgG2, V domains shown)", "VH": "GVVQPGRSLRLSCVASGFIFSSHGIHWVRQAPGKGLEWVAVIWYDGRNKDYADSVKGRFTISRDNSKNTLYLQMNSLRAEDTAVYYCARVAPLGPLDYWGQGTLVTVSS", "VL": "SPGTLSLSPGERATLSCRASQSISSNFLAWYQQKPGQAPRLLIYRPSSRATGIPDSFSGSGSGTDFTLTISRLEPEDFALYYCQQYGTSPFTFGPGTKVDIKR", "notes": "Fully human IgG2 kappa (hybridoma); also called CT-4.10.2"}, "B2": {"name": "3.1.1 (antibody, V domains shown)", "VH": "GVVQPGRSLRLSCAASGFTFSSYGMHWVRQAPGKGLEWVAVIWYDGSNKYYADSVKGRFTISRDNSKNTLYLQMNSLRAEDTAVYYCARGARIITPCMDVWGQGTTVTVSS", "VL": "QSPSSLSASVGDRVTITCRASQSINTYLIWYQQKPGKAPNFLISATSILQSGVPSRFRGSGSGTNFTLTINSLHPEDFATYYCQQSYSTPFTFGPGTKVDIKR", "notes": "also called CT-3.1.1"}, "B3": {"name": "2.1.3 (antibody, human IgG4, V domains shown)", "VH": "SGPGLVKPSQILSLTCTVSGGSISSGGHYWSWIRQHPGKGLEWIGYIYYIGNTYYNPSLKSRVTISVDTSKNQFSLKLSSVTAADTAVYYCARDSGDYYGIDVWGQGTTVTVSS", "VL": "SPDFQSVTPKEKVTITCRASQSIGSSLHWYQQKPDQSPKLLIKYASQSFSGVPSRFSGSGSGTDFTLTINSLEAEDAATYYCHQSSSLPLTFGGGTKVEIKR"}}, "key": {"CTLA-4-Ig(G4) [1]": {"biological_target": "T1, CTLA-4-Ig(G4) (UniProt P16410 37-161, limits assumed)", "T1 construct": "Bought (Repligen, Inc.); not shown: IgG4 portion of the bought fusion protein", "T1 sequence (P16410 37-161 limits assumed)": "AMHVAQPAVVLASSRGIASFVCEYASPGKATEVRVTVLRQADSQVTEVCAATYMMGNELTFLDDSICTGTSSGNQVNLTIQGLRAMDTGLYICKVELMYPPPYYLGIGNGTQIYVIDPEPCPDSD", "experiment": "competition ELISA: CTLA-4-Ig(G4) to coated B7.2-Ig(G1); n = 3"}, "[2]": {"biological_target": "T2, CTLA-4-IgG1 fusion protein (human)", "T2 construct": "Mature extracellular domain of human CTLA-4 fused to human IgG1 constant domains, no hinge, covalent dimer through cysteine 120; The oncostatin M signal peptide is cleaved; also called OM-CTLA4-IgG1 Fusion Protein; CTLA-4-Ig fusion protein", "T2 sequence (chain, as listed by the source)": "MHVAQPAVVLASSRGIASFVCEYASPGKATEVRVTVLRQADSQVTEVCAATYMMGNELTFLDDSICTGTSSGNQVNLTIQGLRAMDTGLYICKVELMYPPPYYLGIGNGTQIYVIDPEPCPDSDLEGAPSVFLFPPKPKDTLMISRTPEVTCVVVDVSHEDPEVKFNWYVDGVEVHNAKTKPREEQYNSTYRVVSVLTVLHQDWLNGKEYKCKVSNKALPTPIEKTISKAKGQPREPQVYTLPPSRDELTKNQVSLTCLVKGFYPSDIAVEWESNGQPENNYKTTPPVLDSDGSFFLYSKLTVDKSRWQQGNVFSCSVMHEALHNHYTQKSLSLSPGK", "experiment": "BIAcore; CTLA-4-Ig on chip, 504.5 RU"}, "[3]": {"biological_target": "T2, CTLA-4-IgG1 fusion protein", "experiment": "BIAcore; CTLA-4-Ig on chip, 457.2 RU"}, "CTLA-4-Ig(G4) [4]": {"biological_target": "T1, CTLA-4-Ig(G4)", "experiment": "competition ELISA: CTLA-4-Ig(G4) to coated B7.1-Ig(G1); n = 2"}, "[5]": {"biological_target": "T2, CTLA-4-IgG1 fusion protein", "experiment": "BIAcore; CTLA-4-Ig on chip, 878.7 RU"}, "[6]": {"biological_target": "T2, CTLA-4-IgG1 fusion protein", "experiment": "selectivity ELISA, antibody 1 µg/ml; CTLA-4/Ig over B7.2/Ig; n = 3"}, "CTLA-4-Ig(G1)": {"biological_target": "T3, CTLA-4-Ig(G1) (UniProt P16410 37-161, limits assumed)", "T3 construct": "also called CTLA4 (IGEN assay); not shown: IgG1 portion", "T3 sequence (P16410 37-161 limits assumed)": "as the sequence (P16410 37-161 limits assumed) above", "experiment": "IGEN ECL bead assay, antibody 1 µg/ml; CTLA-4-Ig(G1) over CD28-Ig(G1); n = 2"}, "[7]": {"biological_target": "T2, CTLA-4-IgG1 fusion protein", "experiment": "BIAcore; CTLA-4-Ig on chip, 397.8 RU"}, "[8]": {"biological_target": "T2, CTLA-4-IgG1 fusion protein", "experiment": "selectivity ELISA, antibody 1 µg/ml; CTLA-4/Ig over CD44/Ig; n = 3"}, "[9]": {"biological_target": "T2, CTLA-4-IgG1 fusion protein", "experiment": "selectivity ELISA, antibody 1 µg/ml; CTLA-4/Ig over CD28/Ig; n = 3"}}}
{"binder": "B1", "values": [{"measurement": "IC50", "setting": "CTLA-4-Ig(G4) [1]", "value": 1.5, "unit": "nM"}, {"measurement": "Ka", "setting": "[2]", "value": "2.2e+09", "unit": "M⁻¹"}, {"measurement": "Kd", "setting": "[2]", "value": 0.455, "unit": "nM"}, {"measurement": "koff", "setting": "[2]", "value": 0.00043, "unit": "s⁻¹"}, {"measurement": "kon", "setting": "[2]", "value": 940000, "unit": "M⁻¹ s⁻¹"}, {"measurement": "Ka", "setting": "[3]", "value": "1.4e+09", "unit": "M⁻¹"}, {"measurement": "Kd", "setting": "[3]", "value": 0.721, "unit": "nM"}, {"measurement": "koff", "setting": "[3]", "value": 0.000505, "unit": "s⁻¹"}, {"measurement": "kon", "setting": "[3]", "value": 700000, "unit": "M⁻¹ s⁻¹"}, {"measurement": "IC50", "setting": "CTLA-4-Ig(G4) [4]", "value": 3.39, "unit": "nM"}, {"measurement": "Ka", "setting": "[5]", "value": "3.9e+09", "unit": "M⁻¹"}, {"measurement": "Kd", "setting": "[5]", "value": 0.254, "unit": "nM"}, {"measurement": "koff", "setting": "[5]", "value": 0.000253, "unit": "s⁻¹"}, {"measurement": "kon", "setting": "[5]", "value": "1e+06", "unit": "M⁻¹ s⁻¹"}]}
{"binder": "B2", "values": [{"measurement": "IC50", "setting": "CTLA-4-Ig(G4) [1]", "value": 0.45, "unit": "nM"}, {"measurement": "selectivity ratio CTLA4/B7.2", "setting": "[6]", "value": "> 500 :1"}, {"measurement": "selectivity ratio CTLA4/CD28", "setting": "CTLA-4-Ig(G1)", "value": "> 500 :1"}, {"measurement": "Ka", "setting": "[2]", "value": "5.5e+09", "unit": "M⁻¹"}, {"measurement": "Kd", "setting": "[2]", "value": 0.182, "unit": "nM"}, {"measurement": "koff", "setting": "[2]", "value": 0.000172, "unit": "s⁻¹"}, {"measurement": "kon", "setting": "[2]", "value": 950000, "unit": "M⁻¹ s⁻¹"}, {"measurement": "Ka", "setting": "[7]", "value": "4.4e+09", "unit": "M⁻¹"}, {"measurement": "Kd", "setting": "[7]", "value": 0.228, "unit": "nM"}, {"measurement": "koff", "setting": "[7]", "value": 0.000207, "unit": "s⁻¹"}, {"measurement": "kon", "setting": "[7]", "value": 910000, "unit": "M⁻¹ s⁻¹"}, {"measurement": "Ka", "setting": "[3]", "value": "4.4e+09", "unit": "M⁻¹"}, {"measurement": "Kd", "setting": "[3]", "value": 0.227, "unit": "nM"}, {"measurement": "koff", "setting": "[3]", "value": 0.000165, "unit": "s⁻¹"}, {"measurement": "kon", "setting": "[3]", "value": 730000, "unit": "M⁻¹ s⁻¹"}, {"measurement": "IC50", "setting": "CTLA-4-Ig(G4) [4]", "value": 0.63, "unit": "nM"}, {"measurement": "selectivity ratio CTLA4/CD44", "setting": "[8]", "value": "> 500 :1"}, {"measurement": "Ka", "setting": "[5]", "value": "1.07e+10", "unit": "M⁻¹"}, {"measurement": "Kd", "setting": "[5]", "value": 0.093, "unit": "nM"}, {"measurement": "koff", "setting": "[5]", "value": "9.6e-05", "unit": "s⁻¹"}, {"measurement": "kon", "setting": "[5]", "value": "1.04e+06", "unit": "M⁻¹ s⁻¹"}, {"measurement": "selectivity ratio CTLA4/CD28", "setting": "[9]", "value": "> 500 :1"}]}
{"binder": "B3", "values": [{"measurement": "Ka", "setting": "[2]", "value": "9e+08", "unit": "M⁻¹"}, {"measurement": "Kd", "setting": "[2]", "value": 1.12, "unit": "nM"}, {"measurement": "koff", "setting": "[2]", "value": 0.00131, "unit": "s⁻¹"}, {"measurement": "kon", "setting": "[2]", "value": "1.17e+06", "unit": "M⁻¹ s⁻¹"}, {"measurement": "Ka", "setting": "[7]", "value": "9e+08", "unit": "M⁻¹"}, {"measurement": "Kd", "setting": "[7]", "value": 1.17, "unit": "nM"}, {"measurement": "koff", "setting": "[7]", "value": 0.0013, "unit": "s⁻¹"}, {"measurement": "kon", "setting": "[7]", "value": "1.11e+06", "unit": "M⁻¹ s⁻¹"}, {"measurement": "Ka", "setting": "[5]", "value": "1.3e+09", "unit": "M⁻¹"}, {"measurement": "Kd", "setting": "[5]", "value": 0.772, "unit": "nM"}, {"measurement": "koff", "setting": "[5]", "value": 0.000959, "unit": "s⁻¹"}, {"measurement": "kon", "setting": "[5]", "value": "1.24e+06", "unit": "M⁻¹ s⁻¹"}]}
